The record followed here is publication PMC11915744.

pKd: −log10 of the molar value.

The assay has as its target NS1 used in the SPR assay (UniProt P03496). The assay can be described thus: SPR.
UniProt P03496, sequence (P03496 whole entry): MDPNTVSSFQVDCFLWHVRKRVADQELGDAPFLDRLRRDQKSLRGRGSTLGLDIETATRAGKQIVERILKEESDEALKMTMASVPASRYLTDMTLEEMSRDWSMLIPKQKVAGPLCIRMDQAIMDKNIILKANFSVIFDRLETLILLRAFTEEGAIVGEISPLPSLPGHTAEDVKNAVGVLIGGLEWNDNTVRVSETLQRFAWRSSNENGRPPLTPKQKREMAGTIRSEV

As for “hnRNPH1 used in the SPR assay (from UniProt P31943 1-449) (natural protein)”, the negative-log Kd (pKd) is 4.98.
